B1: Embryonal Fyn-associated substrate (Homo sapiens), O43281 (parent)
chain: MAIATSTQLARALYDNTAESPQELSFRRGDVLRVLQREGAGGLDGWCLCSLHGQQGIVPANRVKLLPAGPAPKPSLSPASPAQPGSPYPAPDHSNEDQEVYVVPPPARPCPTSGPPAGPCPPSPDLIYKIPRASGTQLAAPRDALEVYDVPPTALRVPSSGPYDCPASFSHPLTRVAPQPPGEDDAPYDVPLTPKPPAELEPDLEWEGGREPGPPIYAAPSNLKRASALLNLYEAPEELLADGEGGGTDEGIYDVPLLGPEAPPSPEPPGALASHDQDTLAQLLARSPPPPHRPRLPSAESLSRRPLPALPVPEAPSPSPVPSPAPGRKGSIQDRPLPPPPPRLPGYGGPKVEGDPEGREMEDDPAGHHNEYEGIPMAEEYDYVHLKGMDKAQGSRPPDQACTGDPELPERGMPAPQEALSPGEPLVVSTGDLQLLYFYAGQCQSHYSALQAAVAALMSSTQANQPPRLFVPHSKRVVVAAHRLVFVGDTLGRLAASAPLRAQVRAAGTALGQALRATVLAVKGAALGYPSSPAIQEMVQCVTELAGQALQFTTLLTSLAP
partner: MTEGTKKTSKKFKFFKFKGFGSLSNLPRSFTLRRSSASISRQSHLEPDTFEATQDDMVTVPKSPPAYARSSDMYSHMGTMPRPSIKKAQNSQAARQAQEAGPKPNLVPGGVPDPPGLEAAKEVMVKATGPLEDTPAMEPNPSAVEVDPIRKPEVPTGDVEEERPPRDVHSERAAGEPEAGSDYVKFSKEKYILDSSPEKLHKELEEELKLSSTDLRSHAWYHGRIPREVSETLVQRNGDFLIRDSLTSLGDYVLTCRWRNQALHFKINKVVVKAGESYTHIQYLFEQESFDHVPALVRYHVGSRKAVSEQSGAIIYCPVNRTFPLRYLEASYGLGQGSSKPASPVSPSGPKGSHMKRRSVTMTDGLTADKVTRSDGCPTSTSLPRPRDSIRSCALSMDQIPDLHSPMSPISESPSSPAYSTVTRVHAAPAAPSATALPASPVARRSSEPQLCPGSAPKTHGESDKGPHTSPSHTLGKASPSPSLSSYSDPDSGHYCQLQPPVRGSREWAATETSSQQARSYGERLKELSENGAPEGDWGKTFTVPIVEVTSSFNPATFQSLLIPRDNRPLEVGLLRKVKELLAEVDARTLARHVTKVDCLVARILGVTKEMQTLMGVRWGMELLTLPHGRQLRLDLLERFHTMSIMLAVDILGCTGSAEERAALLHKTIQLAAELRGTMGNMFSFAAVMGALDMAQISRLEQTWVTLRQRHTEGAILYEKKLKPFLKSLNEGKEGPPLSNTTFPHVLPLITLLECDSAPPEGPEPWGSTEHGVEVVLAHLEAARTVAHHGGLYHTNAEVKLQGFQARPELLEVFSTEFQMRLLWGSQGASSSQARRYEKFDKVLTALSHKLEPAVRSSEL
B2: Fanconi anemia group G protein (Homo sapiens), O15287 (parent)
chain: MSRQTTSVGSSCLDLWREKNDRLVRQAKVAQNSGLTLRRQQLAQDALEGLRGLLHSLQGLPAAVPVLPLELTVTCNFIILRASLAQGFTEDQAQDIQRSLERVLETQEQQGPRLEQGLRELWDSVLRASCLLPELLSALHRLVGLQAALWLSADRLGDLALLLETLNGSQSGASKDLLLLLKTWSPPAEELDAPLTLQDAQGLKDVLLTAFAYRQGLQELITGNPDKALSSLHEAASGLCPRPVLVQVYTALGSCHRKMGNPQRALLYLVAALKEGSAWGPPLLEASRLYQQLGDTTAELESLELLVEALNVPCSSKAPQFLIEVELLLPPPDLASPLHCGTQSQTKHILASRCLQTGRAGDAAEHYLDLLALLLDSSEPRFSPPPSPPGPCMPEVFLEAAVALIQAGRAQDALTLCEELLSRTSSLLPKMSRLWEDARKGTKELPYCPLWVSATHLLQGQAWVQLGAQKVAISEFSRCLELLFRATPEEKEQGAAFNCEQGCKSDAALQQLRAAALISRGLEWVASGQDTKALQDFLLSVQMCPGNRDTYFHLLQTLKRLDRRDEATALWWRLEAQTKGSHEDALWSLPLYLESYLSWIRPSDRDAFLEEFRTSLPKSCDL
B3: Notch homolog 2 N-terminal-like protein A (Homo sapiens), Q7Z3S9 (parent)
chain: MCVTYHNGTGYCKCPEGFLGEYCQHRDPCEKNRCQNGGTCVAQAMLGKATCRCASGFTGEDCQYSTSHPCFVSRPCLNGGTCHMLSRDTYECTCQVGFTGKECQWTDACLSHPCANGSTCTTVANQFSCKCLTGFTGQKCETDVNECDIPGHCQHGGTCLNLPGSYQCQCLQGFTGQYCDSLYVPCAPSPCVNGGTCRQTGDFTFECNCLPETVRRGTELWERDREVWNGKEHDEN
partner: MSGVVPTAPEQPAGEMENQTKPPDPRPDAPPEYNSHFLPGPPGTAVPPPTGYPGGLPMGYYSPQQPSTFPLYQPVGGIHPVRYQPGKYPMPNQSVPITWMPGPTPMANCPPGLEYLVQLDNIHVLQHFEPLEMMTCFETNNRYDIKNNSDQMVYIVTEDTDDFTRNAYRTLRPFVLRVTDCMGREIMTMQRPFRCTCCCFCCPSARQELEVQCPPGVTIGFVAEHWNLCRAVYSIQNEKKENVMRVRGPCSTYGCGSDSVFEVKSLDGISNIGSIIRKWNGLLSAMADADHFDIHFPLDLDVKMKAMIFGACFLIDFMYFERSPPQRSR
B4: Transcription initiation factor IIA subunit 1 (Homo sapiens), P52655 (parent)
chain: MANSANTNTVPKLYRSVIEDVINDVRDIFLDDGVDEQVLMELKTLWENKLMQSRAVDGFHSEEQQLLLQVQQQHQPQQQQHHHHHHHQQAQPQQTVPQQAQTQQVLIPASQQATAPQVIVPDSKLIQHMNASNMSAAATAATLALPAGVTPVQQILTNSGQLLQVVRAANGAQYIFQPQQSVVLQQQVIPQMQPGGVQAPVIQQVLAPLPGGISPQTGVIIQPQQILFTGNKTQVIPTTVAAPTPAQAQITATGQQQPQAQPAQTQAPLVLQVDGTGDTSSEEDEDEEEDYDDDEEEDKEKDGAEDGQVEEEPLNSEDDVSDEEGQELFDTENVVVCQYDKIHRSKNKWKFHLKDGIMNLNGRDYIFSKAIGDAEW
partner: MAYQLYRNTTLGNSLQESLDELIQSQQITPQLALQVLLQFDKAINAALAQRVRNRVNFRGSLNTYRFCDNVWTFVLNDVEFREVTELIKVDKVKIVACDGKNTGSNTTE
B5: Keratin, type I cuticular Ha3-II (Homo sapiens), Q14525 (parent)
chain: MPYNFCLPSLSCRTSCSSRPCVPPSCHGYTLPGACNIPANVSNCNWFCEGSFNGSEKETMQFLNDRLASYLEKVRQLERDNAELENLIRERSQQQEPLLCPSYQSYFKTIEELQQKILCSKSENARLVVQIDNAKLAADDFRTKYQTEQSLRQLVESDINSLRRILDELTLCRSDLEAQMESLKEELLSLKQNHEQEVNTLRCQLGDRLNVEVDAAPAVDLNQVLNETRNQYEALVETNRREVEQWFATQTEELNKQVVSSSEQLQSYQAEIIELRRTVNALEIELQAQHNLRYSLENTLTESEARYSSQLSQVQSLITNVESQLAEIRSDLERQNQEYQVLLDVRARLECEINTYRSLLESEDCKLPSNPCATTNACEKPIGSCVTNPCGPRSRCGPCNTFGY
B6: Actin-associated protein FAM107A (Homo sapiens), O95990 (parent)
chain: MYSEIQRERADIGGLMARPEYREWNPELIKPKKLLNPVKASRSHQELHRELLMNHRRGLGVDSKPELQRVLEHRRRNQLIKKKKEELEAKRLQCPFEQELLRRQQRLNQLEKPPEKEEDHAPEFIKVRENLRRIATLTSEEREL
partner: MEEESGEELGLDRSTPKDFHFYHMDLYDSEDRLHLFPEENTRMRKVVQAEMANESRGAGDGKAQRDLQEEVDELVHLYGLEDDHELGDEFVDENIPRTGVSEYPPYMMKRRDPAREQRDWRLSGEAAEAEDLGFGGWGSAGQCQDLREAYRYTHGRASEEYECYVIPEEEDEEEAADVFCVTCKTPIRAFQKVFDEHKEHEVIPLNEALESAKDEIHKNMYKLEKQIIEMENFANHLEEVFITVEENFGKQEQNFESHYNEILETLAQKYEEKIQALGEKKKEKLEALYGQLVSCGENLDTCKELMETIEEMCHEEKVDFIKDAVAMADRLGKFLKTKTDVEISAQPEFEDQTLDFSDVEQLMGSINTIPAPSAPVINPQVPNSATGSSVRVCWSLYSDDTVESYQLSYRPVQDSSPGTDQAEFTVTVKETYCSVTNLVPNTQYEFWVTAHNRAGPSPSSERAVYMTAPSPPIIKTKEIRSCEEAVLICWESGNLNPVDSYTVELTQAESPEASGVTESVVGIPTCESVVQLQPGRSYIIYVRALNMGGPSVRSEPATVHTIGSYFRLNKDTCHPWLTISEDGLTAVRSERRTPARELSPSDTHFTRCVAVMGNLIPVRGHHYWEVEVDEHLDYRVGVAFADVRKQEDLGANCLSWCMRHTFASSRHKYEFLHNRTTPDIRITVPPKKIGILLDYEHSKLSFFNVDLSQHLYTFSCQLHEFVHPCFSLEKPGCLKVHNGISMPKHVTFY
B7: Radial spoke head protein 3 homolog (Homo sapiens), Q86UC2 (parent)
chain: MTVKPAKAASLARNLAKRRRTYLGGAAGRSQEPEVPCAAVLPGKPGDRNCPEFPPPDRTLGCWATDAAPAAGLCGAGSEPSIAPTSCAGNLPSRPPPLLSPLLASRNPCPWHYLHLSGSHNTLAPTCFKAKLHRKRGSQPPDMASALTDRTSRAPSTYTYTSRPRALPCQRSRYRDSLTQPDEEPMHYGNIMYDRRVIRGNTYALQTGPLLGRPDSLELQRQREARKRALARKQAQEQLRPQTPEPVEGRKHVDVQTELYLEEIADRIIEVDMECQTDAFLDRPPTPLFIPAKTGKDVATQILEGELFDFDLEVKPVLEVLVGKTIEQSLLEVMEEEELANLRASQREYEELRNSERAEVQRLEEQERRHREEKERRKKQQWEIMHKHNETSQKIAARAFAQRYLADLLPSVFGSLRDSGYFYDPIERDIEIGFLPWLMNEVEKTMEYSMVGRTVLDMLIREVVEKRLCMYEHGEDTHQSPEPEDEPGGPGAMTESLEASEFLEQSMSQTRELLLDGGYLQRTTYDRRSSQERKFMEERELLGQDEETAMRKSLGEEELS
partner: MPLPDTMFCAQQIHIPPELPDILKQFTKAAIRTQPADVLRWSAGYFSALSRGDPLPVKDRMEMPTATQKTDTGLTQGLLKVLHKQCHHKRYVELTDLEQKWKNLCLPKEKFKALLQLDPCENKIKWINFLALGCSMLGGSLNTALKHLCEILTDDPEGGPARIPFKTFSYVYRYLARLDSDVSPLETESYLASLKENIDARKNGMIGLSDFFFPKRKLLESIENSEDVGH

Variants of: B1
Conditions: with sh2d3_human SH2D3C

effect of a mutation on the interaction | Variant
with no effect | S265F
with no effect | A140D

Variants of: B2
Conditions: with mbip1_human MBIP

effect of a mutation on the interaction | Variant
with no effect | S7F
with no effect | T297I

Variants of: B2
Conditions: with KRT15, P19012
KRT15, P19012, sequence (P19012 whole entry): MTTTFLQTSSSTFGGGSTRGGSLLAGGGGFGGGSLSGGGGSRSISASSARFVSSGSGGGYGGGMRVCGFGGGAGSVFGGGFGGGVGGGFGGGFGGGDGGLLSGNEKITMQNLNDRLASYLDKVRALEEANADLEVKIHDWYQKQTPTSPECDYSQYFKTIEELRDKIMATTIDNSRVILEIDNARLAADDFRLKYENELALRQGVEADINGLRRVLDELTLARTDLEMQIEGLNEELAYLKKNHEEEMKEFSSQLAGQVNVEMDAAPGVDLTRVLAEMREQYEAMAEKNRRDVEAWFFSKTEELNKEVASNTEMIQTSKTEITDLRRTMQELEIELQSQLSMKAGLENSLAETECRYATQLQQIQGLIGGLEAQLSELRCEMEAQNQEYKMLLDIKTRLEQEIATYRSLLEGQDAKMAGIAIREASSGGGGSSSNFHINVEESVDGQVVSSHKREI

effect of a mutation on the interaction | Variant
with no effect | S7F
with no effect | T297I

Variants of: B2
Conditions: with cenpr_human ITGB3BP

effect of a mutation on the interaction | Variant
with no effect | S7F
with no effect | T297I

Variants of: B2
Conditions: with KRT19, P08727
KRT19, P08727, sequence (P08727 whole entry): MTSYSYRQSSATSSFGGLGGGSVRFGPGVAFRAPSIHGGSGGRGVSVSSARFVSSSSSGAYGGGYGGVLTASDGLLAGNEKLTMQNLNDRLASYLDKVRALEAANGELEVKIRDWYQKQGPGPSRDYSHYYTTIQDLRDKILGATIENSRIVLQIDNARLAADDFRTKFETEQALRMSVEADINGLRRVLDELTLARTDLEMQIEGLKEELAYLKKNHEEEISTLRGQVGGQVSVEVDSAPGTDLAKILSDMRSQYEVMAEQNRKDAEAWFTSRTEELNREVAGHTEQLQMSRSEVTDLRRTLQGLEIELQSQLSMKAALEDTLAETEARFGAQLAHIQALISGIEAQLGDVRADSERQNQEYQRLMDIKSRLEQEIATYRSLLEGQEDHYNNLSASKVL

effect of a mutation on the interaction | Variant
with no effect | S7F
with no effect | T297I

Variants of: B3
Conditions: with pls4_human PLSCR4, Q9NRQ2

effect of a mutation on the interaction | Variant
with no effect | R74Q
with no effect | A115T

Variants of: B4
Conditions: with t2ag_human GTF2A2, P52657

effect of a mutation on the interaction | Variant
with no effect | P208S

Variants of: B5
Conditions: with k2c4_human KRT4, P19013
k2c4_human KRT4, P19013, sequence (P19013 whole entry): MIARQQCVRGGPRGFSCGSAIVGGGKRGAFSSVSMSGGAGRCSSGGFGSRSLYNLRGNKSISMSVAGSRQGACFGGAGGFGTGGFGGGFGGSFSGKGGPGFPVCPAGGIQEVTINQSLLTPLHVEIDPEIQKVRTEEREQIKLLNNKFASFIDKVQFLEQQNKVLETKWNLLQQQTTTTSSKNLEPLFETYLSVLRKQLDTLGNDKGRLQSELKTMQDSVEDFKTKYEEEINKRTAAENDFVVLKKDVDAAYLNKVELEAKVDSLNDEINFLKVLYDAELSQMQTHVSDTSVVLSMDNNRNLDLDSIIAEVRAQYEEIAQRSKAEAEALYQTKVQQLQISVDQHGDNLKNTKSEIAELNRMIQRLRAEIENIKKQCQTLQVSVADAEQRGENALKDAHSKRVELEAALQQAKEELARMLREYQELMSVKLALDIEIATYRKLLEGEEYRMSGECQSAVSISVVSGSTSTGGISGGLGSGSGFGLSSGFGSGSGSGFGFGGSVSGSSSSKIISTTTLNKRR

effect of a mutation on the interaction | Variant
disrupting interaction strength | R66H
with no effect | I318V
with no effect | Q223R
with no effect | E85K

Variants of: B5
Conditions: with KRT79, Q5XKE5
KRT79, Q5XKE5, sequence (Q5XKE5 whole entry): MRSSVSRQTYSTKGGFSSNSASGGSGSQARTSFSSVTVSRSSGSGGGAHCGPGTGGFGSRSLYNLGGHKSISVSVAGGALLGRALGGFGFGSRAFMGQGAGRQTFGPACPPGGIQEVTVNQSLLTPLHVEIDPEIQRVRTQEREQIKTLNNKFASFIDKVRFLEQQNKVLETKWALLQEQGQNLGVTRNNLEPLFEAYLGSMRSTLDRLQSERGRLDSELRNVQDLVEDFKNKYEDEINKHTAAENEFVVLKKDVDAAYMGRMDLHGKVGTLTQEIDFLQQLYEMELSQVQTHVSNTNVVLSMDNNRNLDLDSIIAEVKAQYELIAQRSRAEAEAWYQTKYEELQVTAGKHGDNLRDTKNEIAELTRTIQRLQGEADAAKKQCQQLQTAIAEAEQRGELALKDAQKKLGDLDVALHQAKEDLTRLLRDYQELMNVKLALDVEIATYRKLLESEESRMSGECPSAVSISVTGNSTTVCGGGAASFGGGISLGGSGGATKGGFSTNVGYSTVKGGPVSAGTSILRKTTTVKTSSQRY

effect of a mutation on the interaction | Variant
with no effect | Y294D

Variants of: B6
Conditions: with fsd2_human FSD2, A1L4K1

effect of a mutation on the interaction | Variant
disrupting interaction strength | E141Q

Variants of: B7
Conditions: with rop1l_human ROPN1L

effect of a mutation on the interaction | Variant
with no effect | G518D
with no effect | R213Q

From IntAct's records for PubMed 31515488
